Here are results for one protein from PMC5102385, “Structure of a Spumaretrovirus Gag Central Domain Reveals an Ancient Retroviral Capsid” (PLoS Pathogens, 2016).

Data set [1] deals with the molecule itself. Kind of data set: AUC; multi-speed sedimentation equilibrium at varying protein concentration, 20 mM Tris-HCl pH 8, 150 mM NaCl, 0.5 mM TCEP, interference data, global fit with SEDPHAT; monomer to dimer.
Data set [2] concerns the molecule itself. The data set is described as above. The source holds these as a separate data set.

B1: PFV-Gag CtDCEN (domain or fragment)
chain: RTHGTFPMHQLGNVIKGIVDQEGVATAYTLGMMLSGQNYQLVSGIIRGYLPGQAVVTALQQRLDQEIDNQTRAETFIQHLNAVYEILGLNARGQSIR
notes: Gag of Prototype foamy virus (PFV), residues 381-477 (CtDCEN), amplified from plasmid pcziGag4, in pET22b (NdeI/XhoI); also called PFV-CtDCEN; source: E. coli Rosetta 2 (DE3), purified (Ni-NTA, SEC on Superdex 75)
For the protein B1, in data set [1], the Ka is 1.1e+06 M⁻¹ and the “stoichiometry N” value stood at 2. For the same protein, the Kd in data set [2] was found to be 900 nM.

One may read the stoichiometry N as a count of units in the complex or per binding partner. In general, Kd refers to the concentration at which binding is half-saturated. A low value points to a tighter complex.
